Test [1] deals with human SIGLEC7 on CHO-S-hSIGLEC7 cells (human, UniProt Q9Y286 19-353). As to the kind of experiment: flow cytometry, CHO-S cells expressing the target. Here is the method:
(§1) CHO-S-hSIGLEC15 cells, CHO-S-mSIGLEC15 cells, CHO-S-fasSIGLEC15 cells or CHO-S-dSIGLEC15 cells were transferred to a 96-well plate at a density of 5×10⁴ cells/well respectively. Serially diluted sample anti-SIGLEC15 antibodies were added to the 96-well plate, and incubated at 4° C. for 30 min. Then, the cells were incubated with the secondary antibody anti-hIgG-Fc-Alex Flour 647 (RL1-H) (Jackson ImmunoResearch Laboratories, Inc., 109-606-170) at 4° C. in the dark for 15 minutes before flow cytometry analysis.
(§2) Another similar experiment was performed to determine whether the anti-SIGLEC15 antibodies can bind with other SIGLEC family proteins. CHO-S-hSIGLEC1 cells (expressing hSIGLEC1, SEQ ID NO: 49)), CHO-S-hSIGLEC2 cells (expressing hSIGLEC2, SEQ ID NO: 50), CHO-S-hSIGLEC4 cells (expressing hSIGLEC4, SEQ ID NO: 51), CHO-S-hSIGLEC5 cells (expressing hSIGLEC5, SEQ ID NO: 52), CHO-S-hSIGLEC6 cells (expressing hSIGLEC6, SEQ ID NO: 53), CHO-S-hSIGLEC7 cells (expressing hSIGLEC7, SEQ ID NO: 54), CHO-S-hSIGLEC8 cells (expressing hSIGLEC8, SEQ ID NO: 55), CHO-S-hSIGLEC9 cells (expressing hSIGLEC9, SEQ ID NO: 56), CHO-S-hSIGLEC10 cells (expressing hSIGLEC10, SEQ ID NO: 57), CHO-S-hSIGLEC11 cells (expressing hSIGLEC11, SEQ ID NO: 58), CHO-S-hSIGLEC12 cells (expressing hSIGLEC12, SEQ ID NO: 59), CHO-S-hSIGLEC14 cells (expressing hSIGLEC14, SEQ ID NO: 60) or CHO-S-hSIGLEC16 cells (expressing hSIGLEC16, SEQ ID NO: 61) were used.
For orientation: Flow cytometry measures light scatter and fluorescence of single cells or particles in a stream.

Test [2] deals with T1, human SIGLEC14 on CHO-S-hSIGLEC14 cells (human, UniProt Q08ET2 17-358).
T1 sequence: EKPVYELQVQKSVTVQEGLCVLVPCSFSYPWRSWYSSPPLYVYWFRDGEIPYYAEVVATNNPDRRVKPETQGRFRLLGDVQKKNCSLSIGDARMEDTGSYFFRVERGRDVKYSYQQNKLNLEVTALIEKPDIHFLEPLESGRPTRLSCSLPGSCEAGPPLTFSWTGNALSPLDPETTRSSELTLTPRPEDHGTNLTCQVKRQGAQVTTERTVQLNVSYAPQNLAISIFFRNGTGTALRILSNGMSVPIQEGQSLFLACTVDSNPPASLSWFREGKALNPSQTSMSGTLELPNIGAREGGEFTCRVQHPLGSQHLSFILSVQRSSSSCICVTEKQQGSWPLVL
As to the kind of experiment: flow cytometry, CHO-S cells expressing the target. Here is the method:
as §1, §2

For test [3], the target named is T2, hSIGLEC15 protein captured in the epitope analysis of Example 4 (human, UniProt Q6ZMC9 20-263, limits assumed).
T2 sequence: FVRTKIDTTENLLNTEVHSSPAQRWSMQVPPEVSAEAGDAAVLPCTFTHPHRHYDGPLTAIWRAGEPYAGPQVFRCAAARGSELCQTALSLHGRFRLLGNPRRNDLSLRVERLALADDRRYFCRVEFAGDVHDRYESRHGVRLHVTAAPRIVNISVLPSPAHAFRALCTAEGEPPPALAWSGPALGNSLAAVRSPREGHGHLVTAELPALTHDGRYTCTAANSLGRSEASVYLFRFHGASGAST
The experiment in a line: BLI pairwise binning on captured hSIGLEC15, 200 nM each antibody; competitor 10A7. Here is the method:
(§3) Relative positions of target protein epitope between a pair of purified anti-SIGLEC15 antibodies were analyzed by Biolayer Interferometry (BLI) using ForteBio Octet system at 30° C. A total of 4 purified antibodies were used: 5G12, 10A7, 10C9 and 23F4.
(§4) 1×HBS-EP+ buffer (10 mM 4-(2-hydroxyethyl)-1-piperazineethanesulfonic acid (HEPES), 150 mM NaCl, 3 mM ethylenediaminetetraacetic acid (EDTA) and 0.05% P20, pH7.4) diluted from HBS-EP+ buffer (10×) was used as the running buffer throughout the experiment. About 100 RU of hSIGLEC15 protein was captured at a flow rate of 10 μL/min, and 200 nM of antibody was injected at a flow rate of 30 μL/min to bind the ligand. Another antibody was injected under the same conditions to determine whether the binding of different antibodies interfered with each other. The binding time was 300 s for each antibody.
(§5) The binding value of each antibody was obtained using Data Analysis HT 12.0. To quantify the interference of one antibody binding to another, a binding ratio was calculated to compare each pair of antibodies. The binding ratio is defined as the binding value of the second antibody (analyte 2), divided by the binding value of the first antibody (analyte 1). […] In general, antibody pairs that interfere with each other have the same or overlapping epitopes.

In test [4] the target is T2, hSIGLEC15 protein captured in the …. As to the kind of experiment: BLI pairwise binning on captured hSIGLEC15, 200 nM each antibody; competitor 10C9. Here is the method:
as §3, §4, §5

Test [5] has the same target. The experiment in a line: BLI pairwise binning on captured hSIGLEC15, 200 nM each antibody; competitor 23F4. The protocol: as §3, §4, §5
Test [6] has the same target. As to the kind of experiment: BLI pairwise binning on captured hSIGLEC15, 200 nM each antibody; competitor 5G12. The protocol:
as §3, §4, §5

Here are results for three molecules from patent publication US20250361296A1 (BIOCYTOGEN PHARMACEUTICALS BEIJING, published 2025).

human SIGLEC7 on CHO-S-hSIGLEC7 cells, sequence (Q9Y286 19-353): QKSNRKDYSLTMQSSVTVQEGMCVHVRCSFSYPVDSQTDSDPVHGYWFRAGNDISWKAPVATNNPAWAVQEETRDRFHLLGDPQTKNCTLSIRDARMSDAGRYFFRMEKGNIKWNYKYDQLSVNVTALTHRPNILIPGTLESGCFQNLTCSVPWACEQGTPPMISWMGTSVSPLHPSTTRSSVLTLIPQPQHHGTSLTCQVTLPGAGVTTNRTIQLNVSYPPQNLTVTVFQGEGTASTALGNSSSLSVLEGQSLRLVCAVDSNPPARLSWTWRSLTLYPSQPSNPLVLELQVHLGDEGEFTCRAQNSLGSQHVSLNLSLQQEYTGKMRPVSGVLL

B1: anti-SIGLEC15 antibody 10A7 (antibody, human IgG1, V domains shown)
VH: EVQLVQSGGGLVQPGGSLRLSCAASGFTFSNYEMNWVRQAPGKGLEWISYISNSGSTIYYADSVKGRFTISRDDAKNSLYLQMNSLRAEDTAVYYCAREDYDSSGYYWFDPWGQGTPVTVSS
VL: DIQLTQSPSSVSASVGDRVTITCRASQGISSWLAWYQQKPGKAPKLLIYAASSLQSGVPSRFSGSGSGTDFTLTINSLQPEDFATYYCQQTNSFPLTFGGGTKVEIK
Turning to B1, the results for the “Percentage of Positive Cells” value in test [1] and in test [2] were 0.2% and 0.1%, respectively. Also, the binding result in test [1] and in test [2] was “no binding” each time. Also, the binding ratio in test [3] worked out at 0.14; in test [4] it was 0.16; in test [5], 0.43; in test [6] it was 0.2.

B2: anti-SIGLEC15 antibody 23F4 (antibody, human IgG1, V domains shown)
VH: QVQLQQWGAGLLKPSETLSLTCAVYGGSFSGYFWSWIRQPPGKGLEWIGEINHSGSTNYNPSLKSRVTLSVDTSKNQFSLKLSSVTAADTAVYYCAREGDSSSWGNWFDPWGQGTLVTVSS
VL: EIVLTQSPGTLSLSPGERATLSCRASQSVSSSYLAWYQQKPGQAPRFLIYGASSRATGIPDRFSGSGSGTDFTLTISRLEPEDFAVYYCQQFGNSPLTFGGGTKVEIK
As to B2, the “Percentage of Positive Cells” value in test [1] was 1%; in test [2], 1.3%. Also, the binding result in test [1] and in test [2] was “no binding” in each case. In addition, the binding ratio was determined as 0.18 in test [3], 0.62 in test [4], 0.07 in test [5] and 0.48 in test [6].

B3: anti-SIGLEC15 antibody 10C9 (antibody, human IgG1, V domains shown)
VH: QVQLVQSGAEVKKPGATVKVSCKASGYTFTNYGFSWVRQAPGQGLEWMGWINTYNDNTNYAQKFQGRVTMTTDTSTSTAYMELRSLRSDDTAVYYCARDGLWFGELPHYFDYWGQGTLVTVSS
VL: DIQLTQSPLSSPVTLGQPASISCRSSQSLVNSDGETFLSWLQQRPGQPPRLLIYKISNRFSGVPDRFSGSGAGTDFTLKISRVEAEDVGVYYCMQATQFPHTFGQGTKLEIK
Turning to B3, the results for the “Percentage of Positive Cells” value in test [1] and in test [2] were 0.4% and 0.2%, respectively. The binding result in test [1] and in test [2] was “no binding” each time. Further, the binding ratio in test [3] was 0.11; in test [4] it was 0.11; in test [5], 0.72; in test [6], 0.23.
